Measurements: the supplement of paper PMC11246515
± gives the standard deviation of the averaged measurements.

Test: total protein half-life in vivo (active degradation + dilution); higher = more stable protein
[1] = E. coli NCM3722 delta-clpP delta-lon delta-hslV, growth: N-lim chemostat, doubling time 6 h
[2] = E. coli NCM3722 delta-clpP, growth: N-lim chemostat, doubling time 6 h
[3] = E. coli NCM3722 delta-hslV, growth: N-lim chemostat, doubling time 6 h
[4] = E. coli NCM3722 delta-lon, growth: N-lim chemostat, doubling time 6 h
[5] = E. coli NCM3722 delta-smpB, growth: N-lim chemostat, doubling time 6 h
[6] = wild type E. coli NCM3722, growth: N-lim chemostat, doubling time 6 h
[7] = wild type E. coli NCM3722, growth: N-lim chemostat, doubling time 12 h
[8] = wild type E. coli NCM3722, growth: C-lim chemostat, doubling time 3 h
[9] = wild type E. coli NCM3722, growth: C-lim chemostat, doubling time 6 h
[10] = wild type E. coli NCM3722, growth: C-lim chemostat, doubling time 12 h
[11] = wild type E. coli NCM3722, growth: P-lim chemostat, doubling time 6 h
[12] = wild type E. coli NCM3722, growth: P-lim chemostat, doubling time 12 h

| Sequence | total protein half-life in vivo [1] [h] | total protein half-life in vivo [2] [h] | total protein half-life in vivo [3] [h] | total protein half-life in vivo [4] [h] | total protein half-life in vivo [5] [h] | total protein half-life in vivo [6] [h] | total protein half-life in vivo [7] [h] | total protein half-life in vivo [8] [h] | total protein half-life in vivo [9] [h] | total protein half-life in vivo [10] [h] | total protein half-life in vivo [11] [h] | total protein half-life in vivo [12] [h] |
| --- | --- | --- | --- | --- | --- | --- | --- | --- | --- | --- | --- | --- |
| MNIVDQQTFRDAMSCMGAAVNIITTDGPAGRAGFTASAVCSVTDTPPTLLVCLNRGASVWPAFNENRTLCVNTLSAGQEPLSNLFGGKTPMEHRFAAARWQTGVTGCPQLEEALVSFDCRISQVVSVGTHDILFCAIEAIHRHTTPYGLVWFDRSYHALMRPAC | 5.375 ± 0.033 | 0.819 ± 0.077 | 0.419 | 0.406 | 0.684 ± 0.19 | 0.452 | 1.16 | – | – | – | – | – |
| MKKFALLAGLFVFAPMTWAQDYNIKNGLPSETYITCAEANEMAKTDSAQVAEIVAVMGNASVASRDLKIEQSPELSAKVVEKLNQVCAKDPQMLLITAIDDTMRAIGKK [P0AB46] | 3 ± 0.32 | 4 | 6.28 | – | 4.66 ± 0.55 | 4.93 | 10.1 ± 2.6 | 2.77 | 4.69 ± 0.2 | 6.77 ± 0.093 | 4.4 ± 1.1 | 8.95 ± 0.44 |
| MKREEIADLMAFVVVAEERSFTRAAARLSMAQSALSQIVRRIEERLGLRLLTRTTRSVVPTEAGEHLLSVLGPMLHDIDSAMASLSDLQNRPSGTIRITTVEHAAKTILLPAMRTFLKSHPEIDIQLTIDYGLTDVVSERFDAGVRLGGEMDKDMIAIRIGPDIPMAIVGSPDYFSRRSVPTSVSQLIDHQAINLYLPTSGTANRWRLIRGGREVRVRMEGQLLLNTIDLIIDAAIDGHGLAYLPYDQVERAIKEKKLIRVLDKFTPDLPGYHLYYPHRRHAGSAFSLFIDRLKYKGAV | 5.34 ± 0.45 | – | > 8 | 6.34 | 6.01 ± 1.5 | 5.238 ± 0.043 | 11.7 | 2.929 ± 0.019 | – | – | 5.36 | 9.19 ± 3.4 |
| MESYSQNSNKLDFQHEARILNGIWLITALGLVATAGLAWGAKYIEITATKYDSPPMYVAIGLLLLCMYGLSKDINKINAAIAGVIYLFLLSLVAIVVASLVPVYAIIIVFSTAGAMFLISMLAGLLFNVDPGSHRFIIMMTLTGLALVIIVNAALMSERPIWIISCLMIVLWSGIISHGRNKLLELAGKCHSEELWSPVRCAFTGALTLYYYFIGFFGILAAIAITLVWQRHTRFFH | – | – | – | – | – | > 8 | – | – | – | – | – | – |
| MSNVQEWQQLANKELSRREKTVDSLVHQTAEGIAIKPLYTEADLDNLEVTGTLPGLPPYVRGPRATMYTAQPWTIRQYAGFSTAKESNAFYRRNLAAGQKGLSVAFDLATHRGYDSDNPRVAGDVGKAGVAIDTVEDMKVLFDQIPLDKMSVSMTMNGAVLPVLAFYIVAAEEQGVTPDKLTGTIQNDILKEYLCRNTYIYPPKPSMRIIADIIAWCSGNMPRFNTISISGYHMGEAGANCVQQVAFTLADGIEYIKAAISAGLKIDDFAPRLSFFFGIGMDLFMNVAMLRAARYLWSEAVSGFGAQDPKSLALRTHCQTSGWSLTEQDPYNNVIRTTIEALAATLGGTQSLHTNAFDEALGLPTDFSARIARNTQIIIQEESELCRTVDPLAGSYYIESLTDQIVKQARAIIQQIDEAGGMAKAIEAGLPKRMIEEASAREQSLIDQGKRVIVGVNKYKLDHEDETDVLEIDNVMVRNEQIASLERIRATRDDAAVTAALNALTHAAQHNENLLAAAVNAARVRATLGEISDALEVAFDRYLVPSQCVTGVIAQSYHQSEKSASEFDAIVAQTEQFLADNGRRPRILIAKMGQDGHDRGAKVIASAYSDLGFDVDLSPMFSTPEEIARLAVENDVHVVGASSLAAGHKTLIPELVEALKKWGREDICVVAGGVIPPQDYAFLQERGVAAIYGPGTPMLDSVRDVLNLISQHHD | – | – | – | – | – | – | – | 3.42 | – | – | – | – |
| MNSNKELMQRRSQAIPRGVGQIHPIFADRAENCRVWDVEGREYLDFAGGIAVLNTGHLHPKVVAAVEAQLKKLSHTCFQVLAYEPYLELCEIMNQKVPGDFAKKTLLVTTGSEAVENAVKIARAATKRSGTIAFSGAYHGRTHYTLALTGKVNPYSAGMGLMPGHVYRALYPCPLHGISEDDAIASIHRIFKNDAAPEDIAAIVIEPVQGEGGFYASSPAFMQRLRALCDEHGIMLIADEVQSGAGRTGTLFAMEQMGVAPDLTTFAKSIAGGFPLAGVTGRAEVMDAVAPGGLGGTYAGNPIACVAALEVLKVFEQENLLQKANDLGQKLKDGLLAIAEKHPEIGDVRGLGAMIAIELFEDGDHNKPDAKLTAEIVARARDKGLILLSCGPYYNVLRILVPLTIEDAQIRQGLEIISQCFDEAKQ | 3.78 ± 0.21 | 2.96 ± 0.38 | 2.98 ± 0.17 | 3.23 ± 0.15 | 2.83 ± 0.11 | 3.04 ± 0.32 | 4.1 ± 0.17 | 2.993 ± 0.012 | 4.86 ± 0.26 | 9.33 ± 1.2 | 5.414 ± 0.018 | 9.92 ± 0.68 |
